B1: CPEB3 Ribozyme (parent)
chain: UAACAGGGGGCCACAGCAGAAGCGUUCACGUCGCAGCCCCUGUCAGAUUCUGGUGAAUCUGCGAAUUCUGCUGUAUAUCUC

Variants of: B1
Assay: self-cleavage, relative activity (ratio to wild type); higher = more cleavage; in vitro, sequencing
Method in brief: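 After error-prone PCR and barcoding, CPEB3 ribozyme mutant libraries were transcribed with T7 RNA polymerase at 37°C for 5 hours, then given 15 min with DNase I before an EDTA stop, and they cleaved during both steps. Reverse transcription with template switching preceded Illumina sequencing. Relative activity divides a variant's cleaved/total read fraction by the unmutated ribozyme's. At least 5 reads were required per variant, and three batches were averaged.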

Variant | self-cleavage
UAACAGGGGGCCACAGCAGAAGCGUUCACGUCGCAGCCCCUGUCGGAUUCCGGUGAAUCUGCGAAUUCUGCUGUAUAUCUC [A45G U51C] | 0.7
UAACAGGGGGCCACAGCAGAAGCGUUCACGUCGCAGCCCCUGUCGGAUUCGGGUGAAUCUGCGAAUUCUGCUGUAUAUCUC [A45G U51G] | 0.64
UAACAGGGGGCCACAGCAGAAGCGUUCACGUCGCAGCCCCUGUCGGAUUCAGGUGAAUCUGCGAAUUCUGCUGUAUAUCUC [A45G U51A] | 0.74
UAACAGGGGGCCACAGCAGAAGCGUUCACGUCGCAGCCCCUGUCGGAUUCUGGUGAAUCUGCGAAUUCUUCUGUAUAUCUC [A45G G70U] | 0.33
UAACAGGGGGCCACAGCAGAAGCGUUCACGUCGCAGCCCCUGUCGGAUUCUGGUGAAUCUGCGAAUUCUACUGUAUAUCUC [A45G G70A] | 0.42
UAACAGGGGGCCACAGCAGAAGCGUUCACGUCGCAGCCCCUGUCGGAUUCUGGUGAAUCUGCGAAUUCAGCUGUAUAUCUC [A45G U69A] | 0.42
UAACAGGGGGCCACAGCAGAAGCGUUCACGUCGCAGCCCCUGUCGGAUUCUGGUGAAUCUGCGAAUUCGGCUGUAUAUCUC [A45G U69G] | 0.32
UAACAGGGGGCCACAGCAGAAGCGUUCACGUCGCAGCCCCUGUCGGAUUCUGGUGAAUCUGCGAAUUCCGCUGUAUAUCUC [A45G U69C] | 0.38
UAACAGGGGGCCACAGCAGAAGCGUUCACGUCGCAGCCCCUGUCGGAUUCUGGUGAAACUGCGAAUUCUGCUGUAUAUCUC [A45G U58A] | 0.31
UAACAGGGGGCCACAGCAGAAGCGUUCACGUCGCAGCCCCUGUCGGAUUCUGGUGAAGCUGCGAAUUCUGCUGUAUAUCUC [A45G U58G] | 0.18
UAACAGGGGGCCACAGCAGAAGCGUUCACGUCGCAGCCCCUGUCGGAUUCUGGUGAACCUGCGAAUUCUGCUGUAUAUCUC [A45G U58C] | 0.31
UAACAGGGGGCCACAGCAGAAGCGUUCACGUCGCAGCCCCUGUCGGAUUCUGGUGAAUCUGCUAAUUCUGCUGUAUAUCUC [A45G G63U] | 0.74
UAACAGGGGGCCACAGCAGAAGCGUUCACGUCGCAGCCCCUGUCGGAUUCUGGUGAAUCUGCAAAUUCUGCUGUAUAUCUC [A45G G63A] | 0.48
UAACAGGGGGCCACAGCAGAAGCGUUCACGUCGCAGCCCCUGUCGGAUUCUGGCGAAUCUGCGAAUUCUGCUGUAUAUCUC [A45G U54C] | 0.88
UAACAGGGGGCCACAGCAGAAGCGUUCACGUCGCAGCCCCUGUCGGAUUCUGGGGAAUCUGCGAAUUCUGCUGUAUAUCUC [A45G U54G] | 0.56
UAACAGGGGGCCACAGCAGAAGCGUUCACGUCGCAGCCCCUGUCGGAUUCUGGAGAAUCUGCGAAUUCUGCUGUAUAUCUC [A45G U54A] | 0.85
UAACAGGGGGCCACAGCAGAAGCGUUCACGUCGCAGCCCCUGUCGGAUUCUGGUGAAUCUGCGAACUCUGCUGUAUAUCUC [A45G U66C] | 0.34

Variant | self-cleavage
UAACAGGGGGCCACAGCAGAAGCGUUCACGUCGCAGCCCCUGUCGGAUUCUGGUGAAUCUGCGAAAUCUGCUGUAUAUCUC [A45G U66A] | 0.41
UAACAGGGGGCCACAGCAGAAGCGUUCACGUCGCAGCCCCUGUCGGAUACUGGUGAAUCUGCGAAUUCUGCUGUAUAUCUC [A45G U49A] | 0.42
UAACAGGGGGCCACAGCAGAAGCGUUCACGUCGCAGCCCCUGUCGGAUCCUGGUGAAUCUGCGAAUUCUGCUGUAUAUCUC [A45G U49C] | 0.27
UAACAGGGGGCCACAGCAGAAGCGUUCACGUCGCAGCCCCUGUCGGAUGCUGGUGAAUCUGCGAAUUCUGCUGUAUAUCUC [A45G U49G] | 0.1
UAACAGGGGGCCACAGCAGAAGCGUUCACGUCGCAGCCCCUGUCGGAUUCUGGUGAAUCUGCGAAUACUGCUGUAUAUCUC [A45G U67A] | 0.38
UAACAGGGGGCCACAGCAGAAGCGUUCACGUCGCAGCCCCUGUCGGAUUCUGGUGAAUCUGCGAAUCCUGCUGUAUAUCUC [A45G U67C] | 0.34
UAACAGGGGGCCACAGCAGAAGCGUUCACGUCGCAGCCCCUGUCGGAGUCUGGUGAAUCUGCGAAUUCUGCUGUAUAUCUC [A45G U48G] | 0.19
UAACAGGGGGCCACAGCAGAAGCGUUCACGUCGCAGCCCCUGUCGGACUCUGGUGAAUCUGCGAAUUCUGCUGUAUAUCUC [A45G U48C] | 0.29
UAACAGGGGGCCACAGCAGAAGCGUUCACGUCGCAGCCCCUGUCGGAAUCUGGUGAAUCUGCGAAUUCUGCUGUAUAUCUC [A45G U48A] | 0.39
UAACAGGGGGCCACAGCAGAAGCGUUCACGUCGCAGCCCCUGUCGGAUUCUGGUGAAUCCGCGAAUUCUGCUGUAUAUCUC [A45G U60C] | 1.13
UAACAGGGGGCCACAGCAGAAGCGUUCACGUCGCAGCCCCUGUCGGAUUCUGGUGAAUCAGCGAAUUCUGCUGUAUAUCUC [A45G U60A] | 0.53
UAACAGGGGGCCACAGCAGAAGCGUUCACGUCGCAGCCCCUGUCGGAUUCUGGUGAAUCGGCGAAUUCUGCUGUAUAUCUC [A45G U60G] | 0.25
UAACAGGGGGCCACAGCAGAAGCGUUCACGUCGCAGCCCCUGUCGGAUUCUGGUGAAUCUACGAAUUCUGCUGUAUAUCUC [A45G G61A] | 0.82
UAACAGGGGGCCACAGCAGAAGCGUUCACGUCGCAGCCCCUGUCGGAUUCUGGUGAAUCUCCGAAUUCUGCUGUAUAUCUC [A45G G61C] | 0.23
UAACAGGGGGCCACAGCAGAAGCGUUCACGUCGCAGCCCCUGUCGGAUUCUGGUGAAUCUGCGAAUUCUGCUUUAUAUCUC [A45G G73U] | 1.29
UAACAGGGGGCCACAGCAGAAGCGUUCACGUCGCAGCCCCUGUCGGAUUCUGGUGAAUCUGCGAAUUCUGCUAUAUAUCUC [A45G G73A] | 1.16
UAACAGGGGGCCACAGCAGAAGCGUUCACGUCGCAGCCCCUGUCGGAUUCUGGUGAAUCUGCGAAUUCUGCUCUAUAUCUC [A45G G73C] | 0.69

Source: the RNAGym collection of RNA variant scans (doi:10.1093/nar/gkz1192)
